Test [1] has as its target T1, linear diubiquitin (Boston Biochem) (human, UniProt P0CG48 1-152).
T1 construct: Bought product
As to the kind of experiment: western blot, 1 ug/mL IgG, LI-COR Odyssey quantification; Ub2 bands seen at 333 (faint) and 1000 ng. As to the method:
Gels were transferred at 30 V constant for 1 hour by wet transfer in 10% methanol and 1× NuPAGE transfer buffer (Invitrogen) to 0.2 μm nitrocellulose (Invitrogen). Non-specific binding sites on the membranes were blocked by incubation in 5% milk in PBST for 1 hour at 25° C. with shaking. […] The membranes were washed three times in PBST with shaking. The IgGs were detected by incubating the membrane in a 1:10,000 dilution of a goat anti-human Fc fragment-specific IR Dye 800CW-conjugated secondary antibody (Rockland Immunochemicals) in 5% milk in PBST for 30 minutes at 25° C. with shaking. The membranes were then washed three times in PBST followed by one wash in PBS. The secondary antibody was detected and quantified using the L1-COR Odyssey infrared imaging system (L1-COR Biosciences).

Test [2] addresses T2, K48-linked diubiquitin (Boston Biochem) (human, UniProt P0CG48 1-76, isopeptide bond between the C-terminus of one ubiquitin and Lys48 of the other).
T2 construct: Bought product; also called K48 diUb
As to the kind of experiment: phage specificity ELISA, 1 ug/mL coated antigen, anti-M13-HRP. As for the experimental part: (§1) The panel of ubiquitin proteins was immobilized on 96-well Maxisorb immunoplates (NUNC) (see FIGS. 7A and 7B). Plates were coated at 4° C. overnight with 1 μg/mL of each protein in 50 mM sodium carbonate buffer, pH 9.6. The coated plates were blocked with 200 μL/well of 2.5% milk in PBST for one hour at 25° C. with shaking. Six two-fold serial dilutions of phage from OD₂₆₈=1.0 to OD₂₆₈=0.03 were made in 2.5% milk in PBST. After one hour, the blocking buffer was dumped off of the plate and 100 μL of the phage serial dilutions was added. Plates were incubated at 25° C. for one hour with shaking. The plate was then washed six times with PBST using a plate washer. A 1:5,000 dilution of an anti-M13 horseradish peroxidase (HRP)-conjugated secondary antibody (GE Healthcare) in PBST was used for detection of phage binding. […] The plate was then washed six times with PBST using a plate washer and twice manually with PBS. Bound secondary antibody was detected using a TMB substrate (KPL) followed by quenching with an equal volume of 1 M phosphoric acid. The absorbance was read at 450 nm.

Test [3] has as its target T3, K11-linked diubiquitin (Genentech) (human, UniProt P0CG48 1-76, isopeptide bond between the C-terminus of one ubiquitin and Lys11 of the other).
T3 construct: also called K11 diUb
The test is described as above. As for the experimental part:
as §1

Test [4] addresses T4, monoubiquitin (Boston Biochem) (human, UniProt P0CG48 1-76).
T4 construct: Bought product
Described as above. As to the method: as §1

Test [5] has as its target T1, linear diubiquitin (Boston Biochem). As to the kind of experiment: phage IC50 competition ELISA with soluble linear diubiquitin. As to the method:
An initial titer ELISA was done to determine the amount of phage at which a signal of OD₄₅₀=0.5 would be achieved. […] The coated plates were blocked with 200 μL/well of 2.5% milk in PBST for one hour at 25° C. with shaking. Twelve two-fold serial dilutions of the phage were made in 2.5% milk in PBST from OD₂₆₈=4.0 to OD₂₆₈=0.002. After one hour, the blocking buffer was dumped off of the plate and 100 μL/well of each phage dilution was added and incubated at 25° C. for 15 minutes with shaking. The plate was then washed six times with PBST using a plate washer. A 1:5000 dilution of an anti-M13 phage-HRP-conjugated secondary antibody (GE Healthcare) in PBST was used for detection of phage binding. 100 μL/well of the secondary dilution was added and the plate was incubated at 25° C. for 30 minutes with shaking. The plate was then washed 12 times with PBST using a plate washer and twice with PBS manually. Bound secondary antibody was detected using a TMB substrate (KPL) followed by quenching with an equal volume of 1 M phosphoric acid.
On the technique in general: An ELISA detects its analyte on a solid surface through an enzyme-linked reagent.

The record followed here is patent US20130058955A1 (Genentech, published 2013).

Several values for one entry are separate records, joined by “and”; a condition that tells them apart may be missing. Identical values can stand only once.

What is called IC50 is the midpoint of a concentration-inhibition curve. Read a low IC50 as inhibition by little substance.

B1: 1E3 IgG (antibody, V domains shown)
VH: EVQLVESGGGLVQPGGSLRLSCAASGFTFSNTYISWVRQAPGKGLEWVASITPSSGSTDYADSVKGRFTISADTSKNTAYLQMNSLRAEDTAVYYCARTWLLRWVMDYWGQGTLVTVSS
VL: DIQMTQSPSSLSASVGDRVTITCRASQDVSTAVAWYQQKPGKAPKLLIYSASFLYSGVPSRFSGSGSGTDFTLTISSLQPEDFATYYCQQSYTTPPTFGQGTKVEIK
notes: also called parental 1E3
On to B1, for which the “signal of the Ub2 band at 1000 ng linear diUb (number under the arrow)” value in test [1] turned out to be 8.7.

B2: 3F5, Fab displayed on phage (Fab, V domains shown)
VH: EVQLVESGGGLVQPGGSLRLSCAASGFTFSNTYISWVRQAPGKGLEWVASITPSSGQTDYADSVKGRFTISADTSKNTAYLQMNSLRAEDTAVYYCARTWLLRWVMDYWGQGTLVTVSS
VL: DIQMTQSPSSLSASVGDRVTITCRASQDVSTAVAWYQQKPGKAPKLLIYSASFLYSGVPSRFSGSGSGTDFTLTISSLQPEDFATYYCQQSYTTPPTFGQGTKVEIK
notes: Monovalent Fab on M13 phage
Consider B2, for which the binding result in test [2], in test [3] and in test [4] was “no binding (tested: phage OD268 1)” each time. Also, the IC50 in test [5] was 12 nM and 9 nM and 13 nM.

B3: 2H5/4G7 double mutant, Fab displayed on phage (Fab, name in Kabat numbering, V domains shown)
VH: EVQLVESGGGLVQPGGSLRLSCAASGFTFSNTYISWVRQAPGKGLEWVASITPSSGSTDYADSVKGRFTISADTSKNTAYLQMNSLRAEDTAVYYCARTWLLRWVMDGWGQGTLVTVSS
VL: DIQMTQSPSSLSASVGDRVTITCRASQDVSTAVAWYQQKPGKAPKLLIYSASFLYSGVPSRFSGSGSGTDFTLTISSLQPEDFATYYCQQSYTNPPTFGQGTKVEIK
In turn, B3 came in with an IC50 in test [5] of 23 nM.

B4: 2H5/3E4 double mutant, Fab displayed on phage (Fab, name in Kabat numbering, V domains shown)
VH: EVQLVESGGGLVQPGGSLRLSCAASGFTFSNTYMSWVRQAPGKGLEWVASITPSSGSTDYADSVKGRFTISADTSKNTAYLQMNSLRAEDTAVYYCARTWLLRWVMDYWGQGTLVTVSS
VL: DIQMTQSPSSLSASVGDRVTITCRASQDVSTAVAWYQQKPGKAPKLLIYSASFLYSGVPSRFSGSGSGTDFTLTISSLQPEDFATYYCQQSYTNPPTFGQGTKVEIK
In test [5], B4 registered an IC50 of 26 nM.

B5: 1F11, Fab displayed on phage (Fab, V domains shown)
VH: EVQLVESGGGLVQPGGSLRLSCAASGFTFSNTYISWVRQAPGKGLEWVASITPSSGSTDYADSVKGRFTISADTSKNTAYLQMNSLRAEDTAVYYCARTWLLRWVMDYWGQGTLVTVSS
VL: DIQMTQSPSSLSASVGDRVTITCRASQDVSTAVAWYQQKPGKAPKLLIYSAKFLYSGVPSRFSGSGSGTDFTLTISSLQPEDFATYYCQQSYTTPPTFGQGTKVEIK
notes: Monovalent Fab on M13 phage
For the molecule B5, in test [5], the IC50 is 14 nM.

B6: 1F11/3E4 double mutant, Fab displayed on phage (Fab, name in Kabat numbering, V domains shown)
VH: EVQLVESGGGLVQPGGSLRLSCAASGFTFSNTYMSWVRQAPGKGLEWVASITPSSGSTDYADSVKGRFTISADTSKNTAYLQMNSLRAEDTAVYYCARTWLLRWVMDYWGQGTLVTVSS
VL: DIQMTQSPSSLSASVGDRVTITCRASQDVSTAVAWYQQKPGKAPKLLIYSAKFLYSGVPSRFSGSGSGTDFTLTISSLQPEDFATYYCQQSYTTPPTFGQGTKVEIK
As for B6, in test [5], the IC50 is 12 nM.

B7: 2C11, Fab displayed on phage (Fab, name in Kabat numbering, V domains shown)
VH: EVQLVESGGGLVQPGGSLRLSCAASGFTFSNTYISWVRQAPGKGLEWVASITPSSGSTDYADSVKGRFTISADTSKNTAYLQMNSLRAEDTAVYYCARTWLLRWVMDYWGQGTLVTVSS
VL: DIQMTQSPSSLSASVGDRVTITCRASQDVSTAVAWYQQKPGKAPKLLIYSASFLYSGVPSRFSGSGSGTDFTLTISSLQPEDFATYYCQQSYTQPPTFGQGTKVEIK
notes: Light chain mutant of 1E3 (CDR L3); Monovalent Fab on M13 phage
As for B7, the binding result in test [2], in test [3] and in test [4] was “no binding (tested: phage OD268 1)” in each case. Moreover, in test [5], the IC50 was determined as 20 nM.

B8: 2C11/3E4 double mutant, Fab displayed on phage (Fab, name in Kabat numbering, V domains shown)
VH: EVQLVESGGGLVQPGGSLRLSCAASGFTFSNTYMSWVRQAPGKGLEWVASITPSSGSTDYADSVKGRFTISADTSKNTAYLQMNSLRAEDTAVYYCARTWLLRWVMDYWGQGTLVTVSS
VL: DIQMTQSPSSLSASVGDRVTITCRASQDVSTAVAWYQQKPGKAPKLLIYSASFLYSGVPSRFSGSGSGTDFTLTISSLQPEDFATYYCQQSYTQPPTFGQGTKVEIK
In the case of B8, the IC50 in test [5] came to 24 nM.

B9: 2C11/4G7 double mutant, Fab displayed on phage (Fab, name in Kabat numbering, V domains shown)
VH: EVQLVESGGGLVQPGGSLRLSCAASGFTFSNTYISWVRQAPGKGLEWVASITPSSGSTDYADSVKGRFTISADTSKNTAYLQMNSLRAEDTAVYYCARTWLLRWVMDGWGQGTLVTVSS
VL: DIQMTQSPSSLSASVGDRVTITCRASQDVSTAVAWYQQKPGKAPKLLIYSASFLYSGVPSRFSGSGSGTDFTLTISSLQPEDFATYYCQQSYTQPPTFGQGTKVEIK
B9 had an IC50 in test [5] of 31 nM.

B10: 1F11/4G7 double mutant, Fab displayed on phage (Fab, name in Kabat numbering, V domains shown)
VH: EVQLVESGGGLVQPGGSLRLSCAASGFTFSNTYISWVRQAPGKGLEWVASITPSSGSTDYADSVKGRFTISADTSKNTAYLQMNSLRAEDTAVYYCARTWLLRWVMDGWGQGTLVTVSS
VL: DIQMTQSPSSLSASVGDRVTITCRASQDVSTAVAWYQQKPGKAPKLLIYSAKFLYSGVPSRFSGSGSGTDFTLTISSLQPEDFATYYCQQSYTTPPTFGQGTKVEIK
As for B10, the IC50 in test [5] is 13 nM. Compared with the last molecule, the IC50 is about 2.4-fold lower.

B11: 4G7, Fab displayed on phage (Fab, name in Kabat numbering, V domains shown)
VH: EVQLVESGGGLVQPGGSLRLSCAASGFTFSNTYISWVRQAPGKGLEWVASITPSSGSTDYADSVKGRFTISADTSKNTAYLQMNSLRAEDTAVYYCARTWLLRWVMDGWGQGTLVTVSS
VL: DIQMTQSPSSLSASVGDRVTITCRASQDVSTAVAWYQQKPGKAPKLLIYSASFLYSGVPSRFSGSGSGTDFTLTISSLQPEDFATYYCQQSYTTPPTFGQGTKVEIK
notes: Heavy chain mutant of 1E3 (H3); Monovalent Fab on M13 phage
Take B11: the binding result in test [2], in test [3] and in test [4] was “no binding (tested: phage OD268 1)” each time. In addition, in test [5], the IC50 is 23 nM and 16 nM and 19 nM.

B12: 2H5, Fab displayed on phage (Fab, name in Kabat numbering, V domains shown)
VH: EVQLVESGGGLVQPGGSLRLSCAASGFTFSNTYISWVRQAPGKGLEWVASITPSSGSTDYADSVKGRFTISADTSKNTAYLQMNSLRAEDTAVYYCARTWLLRWVMDYWGQGTLVTVSS
VL: DIQMTQSPSSLSASVGDRVTITCRASQDVSTAVAWYQQKPGKAPKLLIYSASFLYSGVPSRFSGSGSGTDFTLTISSLQPEDFATYYCQQSYTNPPTFGQGTKVEIK
notes: as for B7
For B12, the binding result in test [2], in test [3] and in test [4] was “no binding (tested: phage OD268 1)” throughout. In test [5], the IC50 came out at 17 nM.

B13: 3E4, Fab displayed on phage (Fab, name in Kabat numbering, V domains shown)
VH: EVQLVESGGGLVQPGGSLRLSCAASGFTFSNTYMSWVRQAPGKGLEWVASITPSSGSTDYADSVKGRFTISADTSKNTAYLQMNSLRAEDTAVYYCARTWLLRWVMDYWGQGTLVTVSS
VL: DIQMTQSPSSLSASVGDRVTITCRASQDVSTAVAWYQQKPGKAPKLLIYSASFLYSGVPSRFSGSGSGTDFTLTISSLQPEDFATYYCQQSYTTPPTFGQGTKVEIK
notes: Heavy chain mutant of 1E3 (CDR H1); Monovalent Fab on M13 phage
In the case of B13, the binding result in test [2], in test [3] and in test [4] was “no binding (tested: phage OD268 1)” each time. Further, the IC50 in test [5] was 44 nM and 33 nM and 26 nM.
